Test results as given in a protein production outcome set (Wang et al. 2014).

Assay: label from the status in PepcDB records

| Sequence | protein production |
| --- | --- |
| MENSTLYIVIAGLWLAVGFGIFLKKLDMPVIIGYICTGTVLAAFFKINDFDLLSDIGEFGIVFLMFMIGIEFNFDKLKSIKQEVLVFGLLQVVLCALIAFLLGYFVLGLSPIFSLVLGMGLSLSSTAIVLKFFEDSKQLSTPMGKSAVGILIFQDIAAIPMLLILTILGSKDSNVNLLILKTFISAGIILVLLLLPGKKGANLILEQAKDTRLPEIFIGTILVIVCSAAGLSHFFGFSMSLGAFIVGMAISKSRYKINVQEEFAQLKNLFLALFFITIGMQINVSFFMEKFFVVIFLLILVMGFKTAIIYALLRFFRDAKTAIKTALSLAQIGEFSFVIFLNSGSHQLFNLQEKKGILGFLHQKNILNIAQNDIHQLLILMVVFSMLATPFILKYLESIAQFILHQKSQENEPAKK | failed |
| MENTAPDVLDAGAAELPVERLKPELADVPNEKEDEDEAVCGGAEGVVELVVELAVLFKKENPVEAENGEAEAFEVLDVDEELKVDTPNGDGEEVVAPDEEDAKRDGVEPAEEDEPKNGEEPVAPKIDGEEPEADEATLKEGDEPVAPKMDDEEPGADEATLKDGVAPVADDGAPKRGDVEVAADEDAPKREELEAEADEGAENKEGEDPKRGVEPLAGAAPNGDDDGVAAEEAGAPNRDDDGVAVEEAEEVTNPKGEEPGAAEEALVVDEPNSDGAGADEEAAVPNPNDGVVEAGVTEAEDPNPNDGVDEEAEEPNPKEGVEEAPNPNDGVVEEAGVDDTEDPKPNPVELGFEDWLKEKDNGEVVDEAEEELVAEEDPNENPPTELD | failed |
| MENTVQEARRYLSNAREILSEKAKKNGIYYNDIKYVKLAGRAAYSGVLVALDGLLGKKDTRKSVEWYQEKLGKVDKKALTAFNSAYKILHLSMAYDGIELVSVSKDGLKQAEALINWVETRTAAA | failed |
| MENVITYNNDKGLLAYIQFLASSAQKIGDGNTDRVFDFEDALDQTQMAQLAVDELKKIPEVNALFSERWLPAPFNLDDLAKLPEGTLGHVYAREMKARGFDPYFYKKVPVVDDISYLKMLWRSTHDIYHVVAGFDTNVFGEIGLQAFFLAQTPIPISVMLLSFGMVMISLYQPTNFKALMTEISRGYRVGSHTPGKLIAQKWDQLWDVQVSEIRERLGVNSIL | not failed |
| MENVSDDRFAEMVWEAVSGGATLKDVHGIPQDMMEGLYAHAYDFYHKGRLDEAETFFRFLCIYDFYNPDYIMGLAAVCQLKKQFQKAVDLYAVAFALSKNDYRPVFFTGQCQLFMRKAAKARQCFELVCEQSGLEHHHHHH | failed |
| MEPAGPCGFCPAGEVQPARYTCPRCNAPYCSLRCYRTHGTCAENFY | not failed |
| MEPDMTQAFDDDTLRFYRGNATAYAERQPRSATLTKFLGELPAGAKILELGCGAGYQAEAMLAAGFDVDATDGSPELAAEASRRLGRPVRTMLFHQLDAIDAYDAVWAHACLLHVPRDELADVLKLIWRALKPGGLFYASYKSGEGEGRDKLARYYNYPSEEWLRARYAEAGTWASVAVESSEGKGFDQELAQFLHVSVRKPELEHHHHHH | not failed |
| MEPVLTTKDLKHNYVDGSAELLRDPELVDPPFQVSRCAGNNRDLQTGQRSSGCVVTEIVYLSDSPYSSLNLVLRYPTTPAYPSRHFFSGLGHQMRMLSKLRFTLRSPLGLRRQPAPPPPLLVRVSLSSEPGVFIKMDLKDPASLLDLAMQCLLKNEPIIIQSLEEIPRELLIPLFCAAFLGGHKKTLTAIVKVWPFFCLHVGKLRSHETHSALLKAMIDGLQVLPAPNSASRGSKLKILDLRQDANCRTTCFPIRTKSPFCFHSCSYTQTSSRKRKGKHSTVNLGSEVQLSRYPTELLVDLSLDGTLRTSTFLSLLLSKVEQSSGALHLCCRDLQVDKLSDYNNTLKLLNLLCIDHLAVDQASLNDINTLLSQMVHLDSLSLSKITLTSLNAKIFKSFLTQLERMDNLQELNLSFFCLTNRLHKLLRVLPHDLDYLNLPFCELSYRDFRFLSQCPQAAHLKLLNLSNNPISWEDCEPLQTLMENVSGTLQHLEINHCLITDSTIFSLLPALSHCSHLRVLSFASNPITMSMLMRVLENLLPLMELKYVIYPIPVHCYERWYFQGTLDRQKLADVQVQLKAMLQAAQRGDMNWITFSE | failed |
| MEPWKQCAQWLIHCKVLPTNHRVTWDSAQVFDLAQTLRDGVLLCQLLNNLRAHSINLKEINLRPQMSQFLCLKNIRTFLTACCETFGMRKSELFEAFDLFDVRDFGKVIETLSRLSRTPIALATGIRPFPTEESINDEDIYKGLPDLIDETLVEDEEDL | failed |
| MEQDHVKVKKRVAFVLIDGLGDVTIPKLGYKTPLQAANIPNLDAIASAGINGLMDPVEVGLGCGSDTAHLSLMGYDPRVYYRGRGAFESMGAGLAMSPGDIAFKSNFATLDEKSGVVVSRRADRHFEEEGPILCAALDGLKLQSFPEYEVRVRYATEHRCGVVVKGPRLSGNISGTDPLKDNRLLLEAKPLDESEEATHTAKVVNELSREISRILVSHPVNAERAAQGKNIANLVLLRGCGIRIEVPPFHEKHGLWPCMVAPTKIIAGLGMSLGIDILEAPGATGDYRTLLTSKATAIANALSAPLNPCPNVFVPGEDGHKPGRSDGYDFGFLHIKAIDDAGHDKATMFKVRGLEAVDKAIRQLAKLLWQAESSTHYQYFLCVTGDHSTPVEYGDHSFEPVPFTMCRLRDFVSAVGGESAVLETSLDPFPLPTVVESGEDVTKQEEESGRREAPLAIGGDLVAELNEVAAARGCLGRFHGGEMMGVITNFLNLEV | failed |
| MEQLIFKQTYKKIEPFILLLNGLLLAAAISIVHIVGMHAYHLFEAASSNVPLITLAFGISAVLSSVAIWLTSRFTLPIFRLILSSVIMGIGISASYYVSMLGWNIDIYKKDYTSFLILFSVLIAMSGSGLAFLLAYKLKESERHRISLKLAFAVMMTLSIMGMHYTALISTNITDKFVSQYQAEHDLLLFTIILVTCLVLVASFIVAVLEQRLNQRNLELRKANKELANLSIQDNLTKLPNRLYLVDYAEVLLSDHRYKDQKIAFLYIDLDRFKSVNDAFGHHIGDQLLIQMANRLHWQLNEKCKLLRIGGDEFLLIAENTDTEEAMQLAEKVLHLIQDSYQISGKEINISASLGIALFPEHGQNVQDLLMNADAAMLMSKEQGRNTYTVFSYSTHQQETRSQSKLINDLYKAVEEKQFVLYYQPKFNTNLEICGVEALIRWNHPSLGMLTPHMFIGGAEKTGLIIPMGYWALEQACQQIQEWERSNTQFYPIAVNLSALQFENKKLFSTLEGLLKKYQIQPHHLIIEITESTAMRHIDLSIRACERLRDMGIRVAIDDFGTGHSSFLYLKDLPVDELKIDRGFIVDLKPGSKEEVILESIIHLAKKLGLTVTAEGVETQQQVEILTRLGCQQFQGYLLGMPVNVGQLIQSQGAHFV | failed |
| MEQLVSMGFSSDLAAEALTATGGDSIQKATDWILSHRSSPQSTATLQPKLDRFLRLHPKALAPAMGDDSSKRPNPKTQIHVAADDSNKRHKLSSSSHRQHQPLSERMRPRTLDDVVGQDHLLSPSSLLRSAVESNRLPSIVFWGPPGTGKTSIAKSLINSSKDPSLYRFVSLSAVTSGVKDVRDAVESAKRLNLEGRKRTVLFMDEVHRFNKSQQDTFLPVIEDGSILFIGATTENPSFHLITPLLSRCRVLTLNPLKPNHVETLLRRAVDDSERGLPNSVEVDDSVIEFLANNCDGDARVALNALEISATMATTRAGTDAVVSIDDAKEALQCKHLAYDKAGEQHYNLISALHKSMRGGDANAAIYWLARMLEGGEEPLYIARRLIRFASEDIGLADPSALTQAVACYQASHFLGMPECNVILAQCTAYLALAPKSIAVYRAIGAAQKVVKDSVGQNEGVPLHLRNAPTKLMKELGYGKEYIYPPSDPSSAAGQTYLPPSLLHHKFLEWPEGASGDFQDQEHRL | failed |
| MEQNSYVIIDETGIHARPATMLVQTASKFDSDIQLEYNGKKVNLKSIMGVMSLGVGKDAEITIYADGSDESDAIQAISDVLSKEGLTK | not failed |
| MEQSVPARGTSPARRLATAARHCLVLAVASILAACTTITAVTPNEPEQRLVWPGPPLQPRIEWVREVYNQKGLGVSPGFWGRIARFVLGEKEERFIRPHGILADEQIFALVDSGAGRVHLIDLKRGTYRLLPEEGKTPMVSPIGIARDSRGAIYVTDSGTGLIHRFSDDGDSFVALDLRPLHRPTGIAFNPVTGLLYVAETGAHRIVAFDSAGKETLRIGGSGMEPGAFNFPTDLAVMADGRLLVTDSLNSRIQIFTADGKPAGSFGEAGDTPGRFTRPKGVAVDSEGHIYVCDSQQDMVQIFDETGRLLLAFGDKGSLPGQFWMPSGIHIANDMIYVSDTYNQRVQVFRYLKEEPWGQDPHTPD | failed |
| MERHVPEPTHTLEGWHVLHDFRLLDFARWFSAPLEAREDAWEELKGLVREWRELEEAGQGSYGIYQVVGHKADLLFLNLRPGLDPLLEAEARLSRSAFARYLGRSYSFYSVVELGSQEKPLDPESPYVKPRLTPRVPKSGYVCFYPMNKRRQGQDNWYMLPAKERASLMKAHGETGRKYQGKVMQVISGAQGLDDWEWGVDLFSEDPVQFKKIVYEMRFDEVSARYGEFGPFFVGKYLDEEALRAFLGL | not failed |
| MERILLVLDDTGRGEIAFQKLKKLAEDGLRGEVYILYIREMEVPPFVPEEKELAAYHRLMTQSMKKLEGFKNQLEKAGLKVSDVSVVFGKYADRLLLVEKQIKPDLIVVGFKGGLLKRVIGGFFGKDPCEVLLKKSKASLLICR | not failed |
| MERLKIQVLVDNNTYIDRYFVGEPAVSYYIEIDGNRILFDSGYSDVFISNAEKLNIDLGNLTHVVFSHGHNDHTRGIQFLENRYDLSTVELVSHPNCFIPRKHGEKSIGAPFSAEEIKNIFMYNPKDKPFNLSKNCVFLGEIPSINDFEKRAKIGKCKIGDLWEDDYVLDDSAIVCKTDKGIFIVTGCSHSGICNIVEYAKKVCGDDRVIGILGGFHLFELNNRLDSTIQYLDKEEIRMLYPCHCVSFKVKAKMNEILNINEVGVGLTISILEHHHHHH | not failed |
| MERLNSKLFVENCYIMKENERLRKKAELLNQENQQLLFQLKQKLSKTKNSNNGSNNDNKSSSASGQS | failed |
| MERLSPVFATSKSSNMEVEHWMTSLKEVEKVLDSVEPKLTSSGTKWRVVAQHIKDICSDLNQIFNKEDPRYEVVQAGASAAHDFDVRYLDIHKVRTPHEPLEMRHSKGRKHGREIARLLEKIQKYRQEIEEIKKEYKETDKYRERYDHYKVKLDNLEKKNKDQERIERNQQKFKDAEAAYSSVCADLIQKMETVWKKHVSIFAEAASAVWSTQLQYAKALEAAANPIVPYLQQEEQEEEEEEEAASGTQGRVAEKAYHTNEEKVENSFQKNSAIPPSFRTASEQLTEQSKNINNAKNTSETSPAEDIEA | not failed |
| MERPVPVRVEPRQLALDLPHAESLSREDFLEGSANTAALSLIESWPDWPNRIMMLVGPEGSGKSHLAAIWAELAGARSTAAQALNAAAVPGALATGAVVVEDLVPGSFDERALFHLMNMAREDEAYVLFTGRVEPSALSIELRDLKSRLRTVPVVSLLPPDDALFRALIVKFCADRQMCIDAALVGYLANRIDRSFVAARQVVEKLDTTALRLGRPVTRALASEVLRADLEHHHHHH | failed |
| MERQQQQQQQLRNLRDFLLVYNRMTELCFQRCVPSLHHRALDAEEEACLHSCAGKLIHSNHRLMAAYVQLMPALVQRRIADYEAASAVPSVAAEQPGVSPSGS | not failed |
